One assay addresses human GLP-1 receptor (human, UniProt P43220 24-463). Description: cell-based or functional assay.
Assay [1] concerns the target T1, human amylin-3 (a) receptor (human, UniProt P30988 25-474; O60896 24-148).
T1 sequence (looked up) 1: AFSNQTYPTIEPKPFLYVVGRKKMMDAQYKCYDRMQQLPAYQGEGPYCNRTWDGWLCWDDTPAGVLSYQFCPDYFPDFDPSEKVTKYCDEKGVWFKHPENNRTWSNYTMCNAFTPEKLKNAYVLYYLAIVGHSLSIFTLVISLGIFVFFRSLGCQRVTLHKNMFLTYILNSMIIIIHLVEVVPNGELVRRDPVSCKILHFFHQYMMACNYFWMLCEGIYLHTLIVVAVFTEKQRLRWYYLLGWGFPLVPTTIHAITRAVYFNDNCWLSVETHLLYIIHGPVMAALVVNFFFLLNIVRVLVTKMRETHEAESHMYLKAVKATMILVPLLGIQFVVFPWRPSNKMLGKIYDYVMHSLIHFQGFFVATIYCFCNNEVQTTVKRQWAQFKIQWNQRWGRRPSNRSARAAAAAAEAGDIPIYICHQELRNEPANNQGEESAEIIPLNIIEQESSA
T1 sequence (looked up) 2: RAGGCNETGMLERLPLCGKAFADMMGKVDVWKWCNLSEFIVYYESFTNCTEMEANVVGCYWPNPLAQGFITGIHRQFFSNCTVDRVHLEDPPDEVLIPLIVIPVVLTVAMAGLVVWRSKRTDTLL
Kind of assay: cell-based or functional assay.

Starred links: 1 amine or outer side, 2 acyl side, 3 side chain; linkers in the order of their positions; H or OH if unused. Non-standard residues stand in square brackets, D forms with d. Groups on a side chain read outwards from the residue. *: point of attachment. C20 diacid = O=C(O)CCCCCCCCCCCCCCCCCCC(=O)*; C18 diacid = O=C(O)CCCCCCCCCCCCCCCCC(=O)*; C16 diacid = O=C(O)CCCCCCCCCCCCCCC(=O)*; γGlu = O=C(O)[C@H](CCC(=O)[*:2])N[*:1]; C14 diacid = O=C(O)CCCCCCCCCCCCC(=O)*; εLys = N[C@@H](CCCCN[*:1])C(=O)[*:2]; Trx = NC[C@H]1CC[C@H](C(=O)O)CC1; AEEA = NCCOCCOCC(=O)O; Aib = CC(C)(N)C(=O)O

B1: Compound 0564 (peptide)
peptide: H[Aib]EGTFTSDVSK([AEEA-Lys])YLEEQAAREFIAWLVRGRGGGGGEASELSTAALGRLSAELHELATLPRTETGSGSP-NH2
modifications: also: Lys on Ado carries two C16 diacid-gGlu-Ado-Ado groups, on its alpha and epsilon amines
As to B1, the “Human GLP-1R potency [EC50 (pM)]” value with human GLP-1 receptor was found to be 24.5 pM. For the same molecule, in assay [1], the “Human AmyR3 potency [EC50 (pM)]” value was determined as 14.5 pM.

B2: Compound 0539 (peptide)
peptide: H[Aib]EGTFTSDVSSYLEGQAAREFIAWLVRGRGQEPK([AEEA-AEEA-γGlu-Trx-C20 diacid])GQAPEASELSTAALGRLSAELHELATLPRTETGSGSP-NH2
On to B2, for which the “Human GLP-1R potency [EC50 (pM)]” value with human GLP-1 receptor was 5 pM. The “Human AmyR3 potency [EC50 (pM)]” value in assay [1] was 12.1 pM.

B3: Compound 0502 (peptide)
peptide: H[Aib]EGTFTSDVSSYLEEQAAREFIAWLVRGRK([AEEA-AEEA-γGlu-C20 diacid])GGGGEASELSTAALGRLSAELHELATLPRTETGSGSP-NH2
With B3, the “Human GLP-1R potency [EC50 (pM)]” value with human GLP-1 receptor was 8.4 pM. In assay [1], the “Human AmyR3 potency [EC50 (pM)]” value was found to be 9 pM.

B4: Compound 0512 (peptide)
peptide: H[Aib]EGTFTSDVSSYLEEQAAREFIAWLVRGRK([AEEA-AEEA-γGlu-Trx-C20 diacid])GGEASELSTAALGRLSAELHELATLPRTETGSGSP-NH2
Consider B4, for which, in the assay with human GLP-1 receptor, the “Human GLP-1R potency [EC50 (pM)]” value amounted to 7.6 pM. Besides, the “Human AmyR3 potency [EC50 (pM)]” value in assay [1] was found to be 10.8 pM.

B5: Compound 0562 (peptide)
peptide: H[Aib]EGTFTSDVSSYLEEQAARK([AEEA-AEEA-γGlu-C20 diacid])FIAWLVRGRGGGGGEASELSTAALGRLSAELHELATLPRTETGSGSP-NH2
As for B5, the “Human GLP-1R potency [EC50 (pM)]” value with human GLP-1 receptor stood at 19.3 pM. In addition, the “Human AmyR3 potency [EC50 (pM)]” value in assay [1] is 4.1 pM.

B6: Compound 0552 (peptide)
peptide: H[Aib]EGTFTSDVSSYLEEQAAREFIAWLVRGRK([εLys-AEEA-AEEA-γGlu-C20 diacid])GGGGEASELSTAALGRLSAELHELATLPRTETGSGSP-NH2
For the molecule B6, the “Human GLP-1R potency [EC50 (pM)]” value with human GLP-1 receptor was 4.7 pM. The “Human AmyR3 potency [EC50 (pM)]” value in assay [1] was found to be 6.9 pM.

B7: Compound 0056 (peptide)
peptide: H[Aib]EGTFTSDVSSYLEGQAAK([AEEA-AEEA-γGlu-C18 diacid])EFIAWLVRGRGK([AEEA-AEEA-γGlu-C18 diacid])QEPGQEPEASELSTAALGRLSAELHELATLPRTETGSGSP-NH2
For B7, in the assay with human GLP-1 receptor, the “Human GLP-1R potency [EC50 (pM)]” value was 41.4 pM. The “Human AmyR3 potency [EC50 (pM)]” value in assay [1] is 120 pM.

B8: Compound 0474 (peptide)
peptide: HAEGTFTSDVSSYLEEK([AEEA-AEEA-γGlu-C20 diacid])AAREFIEWLVRGRGEASELSTAALGRLSAELHELATLPRTETGSGSP-NH2
As for B8, the “Human GLP-1R potency [EC50 (pM)]” value in the assay with human GLP-1 receptor was 2.9 pM. Besides, the “Human AmyR3 potency [EC50 (pM)]” value in assay [1] amounted to 21.8 pM.

B9: Compound 0516 (peptide)
peptide: H[Aib]EGTFTSDVSK([AEEA-AEEA-γGlu-C16 diacid])YLEEQAARKFIAWLVRGRGGGGGEASELSTAALGRLSAELHELATLPRTETGSGSP-NH2
modifications: not fully specified (residue 21)
Regarding B9, in the assay with human GLP-1 receptor, the “Human GLP-1R potency [EC50 (pM)]” value came to 3.3 pM. In assay [1], the “Human AmyR3 potency [EC50 (pM)]” value amounted to 8.9 pM.

B10: Compound 0529 (peptide)
peptide: H[Aib]EGTFTSDVSSYLEGQAAREFIAWLVRGRGQEPK([AEEA-AEEA-γGlu-C20 diacid])GQAPEASELSTAALGRLSAELHELATLPRTETGSGSP-NH2
In the case of B10, in the assay with human GLP-1 receptor, the “Human GLP-1R potency [EC50 (pM)]” value was 6.4 pM. Moreover, the “Human AmyR3 potency [EC50 (pM)]” value in assay [1] stood at 14.1 pM.

B11: Compound 0484 (peptide)
peptide: H[Aib]EGTFTSDVSK([AEEA-AEEA-γGlu-C14 diacid])YLEEQAVREFIAK([AEEA-AEEA-γGlu-C14 diacid])LVRGRGGGEASELSTAALGRLSAELHELATLPRTETGSGSP-NH2
Take B11: the “Human GLP-1R potency [EC50 (pM)]” value in the assay with human GLP-1 receptor turned out to be 72.8 pM. In addition, the “Human AmyR3 potency [EC50 (pM)]” value in assay [1] turned out to be 32.5 pM.

B12: Compound 0518 (peptide)
peptide: H[Aib]EGTFTSDVSK([AEEA-AEEA-γGlu-Trx-C20 diacid])YLEEQAAREFIAWLVRGRGGGGGEASELSTAALGRLSAELHELATLPRTETGSGSP-NH2
In the case of B12, in the assay with human GLP-1 receptor, the “Human GLP-1R potency [EC50 (pM)]” value was 3.4 pM. Also, in assay [1], the “Human AmyR3 potency [EC50 (pM)]” value was 4.4 pM.

B13: Compound 0475 (peptide)
peptide: HAEGTFTSDK([AEEA-AEEA-γGlu-C16 diacid])SSYLEEK([AEEA-AEEA-γGlu-C16 diacid])AAREFIEWLVRGRGEASELSTAALGRLSAELHELATLPRTETGSGSP-NH2
On to B13, for which, in the assay with human GLP-1 receptor, the “Human GLP-1R potency [EC50 (pM)]” value worked out at 70.4 pM. Further, in assay [1], the “Human AmyR3 potency [EC50 (pM)]” value was determined as 66.8 pM.

B14: Compound 0503 (peptide)
peptide: H[Aib]EGTFTSDVSSYLEEQAAREFIEWLVRGRK([AEEA-AEEA-γGlu-Trx-C20 diacid])GGGGEASELSTAALGRLSAELHELATLPRTETGSGSP-NH2
Turning to B14, the “Human GLP-1R potency [EC50 (pM)]” value with human GLP-1 receptor is 6.5 pM. For the same molecule, in assay [1], the “Human AmyR3 potency [EC50 (pM)]” value came to 7.7 pM.

B15: Compound 0052 (peptide)
peptide: H[Aib]EGTFTSDVSSYLEGQAAK([AEEA-AEEA-γGlu-C18 diacid])EFIAWLVRGRGGGGGGGGGEASELSTAALGRLSAELHELATLPRTETGSGSP-NH2
B15: in the assay with human GLP-1 receptor, the “Human GLP-1R potency [EC50 (pM)]” value is 17 pM. Moreover, in assay [1], the “Human AmyR3 potency [EC50 (pM)]” value turned out to be 19.4 pM.

B16: Compound 0506 (peptide)
peptide: H[Aib]EGTFTSDVSSYLEEQAAREFIAWLVRGRKGGGGEASELSTAALGRLSAELHELATLPRTETGSGSP-NH2
modifications: not fully specified (residue 31)
With B16, the “Human GLP-1R potency [EC50 (pM)]” value with human GLP-1 receptor worked out at 5.8 pM. In assay [1], the “Human AmyR3 potency [EC50 (pM)]” value worked out at 9.8 pM.

B17: Compound 0504 (peptide)
peptide: H[Aib]EGTFTSDVSSYLEEQAAREFIAWLVRGRPK([AEEA-AEEA-γGlu-Trx-C20 diacid])GGGGEASELSTAALGRLSAELHELATLPRTETGSGSP-NH2
B17: in the assay with human GLP-1 receptor, the “Human GLP-1R potency [EC50 (pM)]” value stood at 8.3 pM. Further, the “Human AmyR3 potency [EC50 (pM)]” value in assay [1] amounted to 6 pM.

B18: Compound 0565 (peptide)
peptide: H[Aib]EGTFTSDVSK([AEEA-AEEA-γGlu-C20 diacid])YLEEQAAREFIAWLVRGRGGGGGEASELSTAALGRLSAELHELATLPRTETGSGSP-NH2
B18: the “Human GLP-1R potency [EC50 (pM)]” value with human GLP-1 receptor was found to be 6.4 pM. Moreover, in assay [1], the “Human AmyR3 potency [EC50 (pM)]” value came out at 6.2 pM.

B19: Compound 0511 (peptide)
peptide: H[Aib]EGTFTSDVSRYLEEQAAREFIEWLVRGRK([AEEA-AEEA-γGlu-Trx-C20 diacid])GGGGEASELSTAALGRLSAELHELATLPRTETGSGSP-NH2
For B19, the “Human GLP-1R potency [EC50 (pM)]” value with human GLP-1 receptor was 8.8 pM. Further, in assay [1], the “Human AmyR3 potency [EC50 (pM)]” value worked out at 8.4 pM.

B20: Compound 0509 (peptide)
peptide: H[Aib]EGTFTSDVSSYLEEQAARK([AEEA-AEEA-γGlu-C16 diacid])FIAWLVRGRGGGGGEASELSTAALGRLSAELHK([AEEA-AEEA-γGlu-C16 diacid])LATLPRTETGSGSP-NH2
B20: the “Human GLP-1R potency [EC50 (pM)]” value with human GLP-1 receptor worked out at 7.1 pM. Also, in assay [1], the “Human AmyR3 potency [EC50 (pM)]” value worked out at 29.9 pM.

B21: Compound 0483 (peptide)
peptide: H[Aib]EGTFTSDVSK([AEEA-AEEA-γGlu-C16 diacid])YLEEQAVREFIAK([AEEA-AEEA-γGlu-C16 diacid])LVRGRGGGEASELSTAALGRLSAELHELATLPRTETGSGSP-NH2
With B21, the “Human GLP-1R potency [EC50 (pM)]” value in the assay with human GLP-1 receptor is 33.7 pM. Moreover, the “Human AmyR3 potency [EC50 (pM)]” value in assay [1] came to 36.8 pM.

B22: Compound 0473 (peptide)
peptide: HWEGTFTSDVSSYLEEK([AEEA-AEEA-γGlu-C20 diacid])AAREFIEWLVRGRGEASELSTAALGRLSAELHELATLPRTETGSGSP-NH2
As to B22, the “Human GLP-1R potency [EC50 (pM)]” value with human GLP-1 receptor stood at 3.1 pM. Moreover, the “Human AmyR3 potency [EC50 (pM)]” value in assay [1] stood at 16.2 pM.

B23: Compound 0561 (peptide)
peptide: H[Aib]EGTFTSDVSSYLEEQAARK([AEEA-AEEA-γGlu-Trx-C20 diacid])FIAWLVRGRGGGGGEASELSTAALGRLSAELHELATLPRTETGSGSP-NH2
Regarding B23, the “Human GLP-1R potency [EC50 (pM)]” value with human GLP-1 receptor was 17.5 pM. Besides, the “Human AmyR3 potency [EC50 (pM)]” value in assay [1] came to 10.7 pM.

B24: Compound 0528 (peptide)
peptide: H[Aib]EGTFTSDVSK([AEEA-AEEA-γGlu-C16 diacid])YLEEQAAREFIAWLVRGRK([AEEA-AEEA-γGlu-C16 diacid])GGGGEASELSTAALGRLSAELHELATLPRTETGSGSP-NH2
Regarding B24, in the assay with human GLP-1 receptor, the “Human GLP-1R potency [EC50 (pM)]” value amounted to 3.8 pM. Besides, the “Human AmyR3 potency [EC50 (pM)]” value in assay [1] came to 22 pM.

B25: Compound 0482 (peptide)
peptide: HAEGTFTSDVSK([AEEA-AEEA-γGlu-C16 diacid])YLEEQAVREFIAK([AEEA-AEEA-γGlu-C16 diacid])LVRGRGGGEASELSTAALGRLSAELHELATLPRTETGSGSP-NH2
Consider B25, for which the “Human GLP-1R potency [EC50 (pM)]” value in the assay with human GLP-1 receptor worked out at 36.5 pM. In assay [1], the “Human AmyR3 potency [EC50 (pM)]” value turned out to be 31.8 pM.

Values taken from US20260132182A1 (published 2026).
